B1: GB1-tagged polyproline peptide P16 (peptide)
chain: GAMSGSPPPPPPPPPPPPPPPPSGSN
B2: GB1-polyproline peptide P10 (peptide)
chain: GAMSGSPPPPPPPPPPSGSN

Target: PRPF40A WW12 (tandem WW domains, residues 141-236) (human, UniProt O75400 141-236)
Test: ITC

Chain of PRPF40A WW12 (tandem WW domains, residues 141-236) (O75400 141-236): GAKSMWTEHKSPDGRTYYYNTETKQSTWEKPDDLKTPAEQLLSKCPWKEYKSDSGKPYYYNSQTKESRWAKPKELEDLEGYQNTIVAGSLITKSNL

Row | Binder | Kd [µM]
1 | B1 | 3.35
2 | B2 | 28.6
